Assay results: patent publication US20160002331A1 (Pfizer, published 2016)
Where a chain is given by its changes, count along the chain named. In names and notes the source's numbering stands. Several values for one entry are separate records, joined by “and”; a condition that tells them apart may be missing. Identical values can stand only once.

B1: humanized 438 VH1.1/VL1.1 (antibody, human IgG1, V domains shown)
VH: EVQLVESGGGLVQPGGSLRLSCAASGFTFSSFAMAWVRQAPGKGLEWVASISYGGADTYYRDSVKGRFTISRDNAKNSLYLQMNSLRAEDTAVYYCAKDLPYYGYTPFVMDAWGQGTLVTVSS
VL: DIQLTQSPSSLSASVGDRVTITCRASQRINTDLHWYQQKPGKAPKVLIKFASQTISGVPSRFSGSGSGTDFTLTISSLQPEDFATYYCQQSNSWPYTFGQGTKLEIK
B2: humanized 438 VH1.0/VL1.8 (antibody, human IgG1, V domains shown)
VH: B1 VH with K98R
VL: B1 VL with L4M
B3: humanized 438 VH1.0/VL1.1 (antibody, human IgG1, V domains shown)
VH: B1 VH with K98R
VL: B1 VL
B4: humanized 438 VH1.1/VL1.3 (antibody, human IgG1, V domains shown)
VH: B1 VH
VL: B1 VL with V46L, K49Y
B5: humanized 438 VH1.1/VL1.5 (antibody, human IgG1, V domains shown)
VH: B1 VH
VL: B1 VL with L4M, V46L
B6: humanized 438 VH1.1/VL1.0 (antibody, human IgG1, V domains shown)
VH: B1 VH
VL: B1 VL with L4M, V46L, K49Y
B7: humanized 438 VH1.1/VL1.9 (antibody, human IgG1, V domains shown)
VH: B1 VH
VL: B1 VL with Q3M
B8: rat 438-hIgG1 (antibody, V domains shown)
VH: AVQLVESGGGLVQPGRSLKLSCTASGFTFSSFAMAWVRQAPTKGLEWVASISYGGADTYYRDSVKGRFTISRDNAKSSLYLQMDSLRSEDTSTYYCAKDLPYYGYTPFVMDAWGQGTSVTVSS
VL: DIMLTQSPPTLSVTPGETISLSCRASQRINTDLHWYQQKPNESPRVLIKFASQTISGVPSRFSGSGSGTDFTLNINRVEPEDFSVYYCQQSNSWPYTFGAGTKLELK
notes: also called r438-hIgG
B9: parental rat 438 (antibody, V domains shown)
VH: B8 VH
VL: B8 VL
notes: Rat monoclonal IgG from a hybridoma
B10: rat 351(R58Y)-mIgG1 (antibody, V domains shown)
VH: EVQLVESGGGLVQPGRSLKVSCLASGFTFSHYGMNWIRQAPGKGLDWVASISRSGSYIYYVDTVKGRFTVSRDIAKNTLYLQMTSLRSEDTALYYCAREGQFGDYFEYWGQGVMVTVSS
VL: DIMLTQSPATLSVTPGERISLSCRASQKISTNLHWYQQKPNESPRILIKYASQTISGIPSRFSGSGSGTDFTLHINTVEPEDFSVYYCQQTNSWPLTFGSGTKLEIK
B11: rat 351(R58Y/V60R)-mIgG1 (antibody, V domains shown)
VH: B10 VH with V61R
VL: B10 VL
B12: rat 351(R58Y/V60A)-mIgG1 (antibody, V domains shown)
VH: B10 VH with V61A
VL: B10 VL

target: T1, human Notch1 NRR_Avi_His recombinant protein (human, UniProt P46531 1434-1737); assay: competition ELISA on coated human Notch1 NRR_Avi_His; competitor 0.8 nM biotinylated rat 438
T1 construct: Secreted from CHO-PACE cells; cleaved at S1 into an N-terminal ~26 kDa half (LNR-A, B, C, HD1) and a C-terminal ~12 kDa half (HD2 and tag) that stay associated non-covalently; written here as one chain; also called recombinant human Notch1 NRR; human Notch1 NRR immunogen
T1 sequence: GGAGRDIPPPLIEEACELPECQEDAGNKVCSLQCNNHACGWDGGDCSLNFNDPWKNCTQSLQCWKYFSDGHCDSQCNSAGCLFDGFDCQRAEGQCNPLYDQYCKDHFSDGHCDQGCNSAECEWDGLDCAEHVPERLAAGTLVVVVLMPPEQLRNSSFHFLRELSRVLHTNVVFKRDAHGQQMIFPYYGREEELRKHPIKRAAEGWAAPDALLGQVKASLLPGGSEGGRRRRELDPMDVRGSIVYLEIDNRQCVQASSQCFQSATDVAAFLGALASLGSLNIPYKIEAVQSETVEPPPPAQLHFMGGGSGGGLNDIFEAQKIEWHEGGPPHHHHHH
Method: (§1) In a similar manner as described for recombinant protein or cell based ELISAs, 96 well cell culture plates were either coated with Notch1 NRR-Avi_His protein (hi-bound co-Star plates), or seeded with full length Notch1 expressing U-2 OS cells (cell culture plate, Co-star), respectively.
(§2) After incubation for 2 hours, the plates were washed, as described above, and HRP-conjugated streptavidin (Southern Biotech) diluted 1:5000 in blocking buffer was applied. Incubation with streptavidin was allowed for 30 min before the plates were washed again and developed with TMB solution for 10 minutes. Developing reaction was stopped by adding 0.18M H₂SO₄ and absorbance at 450 nm was measured. Data plotting and analyses were performed with Microsoft Excel and Graphpad-Prizm software.

Row | EC50 [nM] | Binder
1 | 0.6 | B1
2 | 2.1 | B2
3 | 0.7 | B3
4 | 2.5 | B4
5 | 7 | B5
6 | 1.1 | B6
7 | 0.4 | B7
8 | 2.1 | B8

target: T1, human Notch1 NRR_Avi_His recombinant …; assay: SPR (Biacore T100), ratio of KD to that of rat 438-hIgG1
Method: (§3) The kinetic constants of the anti-Notch1 NRR interactions were determined by surface plasmon resonance (Biacore® T100, Biacore Inc., Piscataway, N.J.). Flow cells of a CM5 chip were immobilized with approximately 10,000 Resonance Unit (RU) of anti-human IgG-Fc (Biacore®) in 10 mM Glycine, pH 5.0 at 10 μl/min for 600 seconds. […] Association of four concentrations of human Notch1 NRR_Avi_His recombinant protein (from 3.7-100 nM) and a zero concentration (running buffer) at 100 μl/min were recorded for 3 minutes in TBS with 1 mM CaCl₂. Dissociation of the complexes was measured for 10 minutes. The surface of the chip was regenerated by injecting 3M MgCl₂ with 3 mM EGTA for 60 seconds at 10 μl/min. Curves obtained after subtraction of the reference and buffer signals were fitted to a 1:1 Langmuir binding model with Biacore® T100 Evaluation Software (Biacore®).

Row | Fold difference from rat 438 [fold] | Binder
9 | 2.21 | B1
10 | 1.47 | B3
11 | 0.42 | B4
12 | 5.02 | B6
13 | 1 | B8

target: T2, full-length human Notch1 expressed on the cell surface (human, UniProt P46531 19-2555); assay: competition ELISA on U-2 OS cells expressing full-length human Notch1; competitor 0.8 nM biotinylated rat 438
T2 construct: whole, on cells; On U-2 OS cells stably overexpressing it (ELISAs, reporter cells); also called cell surface full-length human Notch1; native Notch1 receptor
Method: as §1, §2

T2 sequence (P46531 19-2555): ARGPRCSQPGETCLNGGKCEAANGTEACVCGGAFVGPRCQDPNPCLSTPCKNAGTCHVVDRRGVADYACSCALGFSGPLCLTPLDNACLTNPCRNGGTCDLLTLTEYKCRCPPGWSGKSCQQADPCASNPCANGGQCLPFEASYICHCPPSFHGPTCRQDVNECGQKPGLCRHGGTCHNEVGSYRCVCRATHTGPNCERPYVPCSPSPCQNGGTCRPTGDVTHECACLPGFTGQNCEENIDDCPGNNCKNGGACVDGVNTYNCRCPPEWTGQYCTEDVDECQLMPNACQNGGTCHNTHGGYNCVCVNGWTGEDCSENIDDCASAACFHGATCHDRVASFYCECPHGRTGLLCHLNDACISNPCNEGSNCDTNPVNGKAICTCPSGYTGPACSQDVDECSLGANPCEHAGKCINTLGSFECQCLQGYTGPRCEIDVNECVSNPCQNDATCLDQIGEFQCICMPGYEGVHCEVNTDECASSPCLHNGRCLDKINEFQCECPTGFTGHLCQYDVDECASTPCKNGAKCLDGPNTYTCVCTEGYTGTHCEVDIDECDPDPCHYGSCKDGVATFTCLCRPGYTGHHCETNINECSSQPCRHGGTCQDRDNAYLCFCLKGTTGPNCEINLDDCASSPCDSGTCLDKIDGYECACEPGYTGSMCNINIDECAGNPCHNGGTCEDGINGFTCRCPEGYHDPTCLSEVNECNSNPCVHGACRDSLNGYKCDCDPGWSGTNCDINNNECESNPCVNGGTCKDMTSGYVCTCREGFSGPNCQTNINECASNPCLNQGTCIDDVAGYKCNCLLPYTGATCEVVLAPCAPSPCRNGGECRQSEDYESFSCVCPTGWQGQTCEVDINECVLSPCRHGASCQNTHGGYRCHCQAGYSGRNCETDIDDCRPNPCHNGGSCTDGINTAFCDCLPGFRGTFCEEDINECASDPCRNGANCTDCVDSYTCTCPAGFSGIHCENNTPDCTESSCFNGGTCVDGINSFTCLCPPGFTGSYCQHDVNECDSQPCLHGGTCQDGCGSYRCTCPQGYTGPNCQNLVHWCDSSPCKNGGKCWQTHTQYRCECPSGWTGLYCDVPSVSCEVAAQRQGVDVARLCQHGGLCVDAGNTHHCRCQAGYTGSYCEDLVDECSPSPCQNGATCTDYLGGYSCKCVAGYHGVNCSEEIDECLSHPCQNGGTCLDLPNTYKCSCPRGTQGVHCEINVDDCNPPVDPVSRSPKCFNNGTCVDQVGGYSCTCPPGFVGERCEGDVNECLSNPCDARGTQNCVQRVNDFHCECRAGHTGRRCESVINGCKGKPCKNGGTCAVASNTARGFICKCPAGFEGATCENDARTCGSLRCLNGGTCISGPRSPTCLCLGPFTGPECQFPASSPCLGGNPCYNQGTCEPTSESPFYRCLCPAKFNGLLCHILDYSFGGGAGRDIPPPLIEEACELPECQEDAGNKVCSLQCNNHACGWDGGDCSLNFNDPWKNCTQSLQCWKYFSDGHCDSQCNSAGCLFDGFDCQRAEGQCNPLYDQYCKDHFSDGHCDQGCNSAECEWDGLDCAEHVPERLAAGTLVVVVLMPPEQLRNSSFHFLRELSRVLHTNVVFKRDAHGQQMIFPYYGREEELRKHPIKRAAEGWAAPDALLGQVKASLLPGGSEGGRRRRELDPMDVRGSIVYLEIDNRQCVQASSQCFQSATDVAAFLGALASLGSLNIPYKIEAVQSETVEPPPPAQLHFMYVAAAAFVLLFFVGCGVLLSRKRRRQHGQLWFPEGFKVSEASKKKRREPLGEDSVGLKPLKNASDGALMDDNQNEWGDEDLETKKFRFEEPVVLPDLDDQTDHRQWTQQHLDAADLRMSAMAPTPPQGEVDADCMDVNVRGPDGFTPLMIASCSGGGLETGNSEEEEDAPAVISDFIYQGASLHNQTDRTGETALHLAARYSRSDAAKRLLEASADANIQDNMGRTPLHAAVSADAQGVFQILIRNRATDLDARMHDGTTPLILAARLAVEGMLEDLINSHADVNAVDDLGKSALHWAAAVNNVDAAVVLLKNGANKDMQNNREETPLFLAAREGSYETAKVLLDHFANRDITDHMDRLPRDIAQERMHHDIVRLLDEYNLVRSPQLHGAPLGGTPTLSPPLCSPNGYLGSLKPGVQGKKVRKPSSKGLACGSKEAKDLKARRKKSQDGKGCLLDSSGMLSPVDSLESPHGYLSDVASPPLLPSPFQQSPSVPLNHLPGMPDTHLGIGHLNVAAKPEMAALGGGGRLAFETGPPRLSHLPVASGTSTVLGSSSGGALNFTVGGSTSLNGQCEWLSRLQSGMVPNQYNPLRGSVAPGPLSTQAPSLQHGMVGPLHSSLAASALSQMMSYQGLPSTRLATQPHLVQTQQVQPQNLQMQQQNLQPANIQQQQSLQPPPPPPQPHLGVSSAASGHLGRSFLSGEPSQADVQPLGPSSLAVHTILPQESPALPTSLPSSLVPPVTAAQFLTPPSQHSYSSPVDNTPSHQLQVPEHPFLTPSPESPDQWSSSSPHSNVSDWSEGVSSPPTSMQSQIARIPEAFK

Row | EC50 [nM] | Binder
14 | 2.4 | B1
15 | 11.6 | B2
16 | 4 | B3
17 | 2.8 | B4
18 | 3.3 | B5
19 | 2.8 | B6
20 | 2.2 | B7
21 | 4.4 | B8

target: T2, full-length human Notch1 expressed on …; assay: cell-based or functional assay

Row | IC50, human Notch1 reporter gene co-culture assay (DLL4-HEK293) [nM] | Binder
22 | 0.657 | B1
23 | 1.87 | B2
24 | 1.19 | B3
25 | 0.45 | B4
26 | 0.35 | B5
27 | 0.46 | B6
28 | 0.38 | B7
29 | 0.65 | B8

target: T3, full-length mouse Notch1 expressed on the cell surface of U-2 OS cells (mouse, UniProt Q01705 19-2531); assay: cell-based or functional assay
T3 sequence (Q01705 19-2531): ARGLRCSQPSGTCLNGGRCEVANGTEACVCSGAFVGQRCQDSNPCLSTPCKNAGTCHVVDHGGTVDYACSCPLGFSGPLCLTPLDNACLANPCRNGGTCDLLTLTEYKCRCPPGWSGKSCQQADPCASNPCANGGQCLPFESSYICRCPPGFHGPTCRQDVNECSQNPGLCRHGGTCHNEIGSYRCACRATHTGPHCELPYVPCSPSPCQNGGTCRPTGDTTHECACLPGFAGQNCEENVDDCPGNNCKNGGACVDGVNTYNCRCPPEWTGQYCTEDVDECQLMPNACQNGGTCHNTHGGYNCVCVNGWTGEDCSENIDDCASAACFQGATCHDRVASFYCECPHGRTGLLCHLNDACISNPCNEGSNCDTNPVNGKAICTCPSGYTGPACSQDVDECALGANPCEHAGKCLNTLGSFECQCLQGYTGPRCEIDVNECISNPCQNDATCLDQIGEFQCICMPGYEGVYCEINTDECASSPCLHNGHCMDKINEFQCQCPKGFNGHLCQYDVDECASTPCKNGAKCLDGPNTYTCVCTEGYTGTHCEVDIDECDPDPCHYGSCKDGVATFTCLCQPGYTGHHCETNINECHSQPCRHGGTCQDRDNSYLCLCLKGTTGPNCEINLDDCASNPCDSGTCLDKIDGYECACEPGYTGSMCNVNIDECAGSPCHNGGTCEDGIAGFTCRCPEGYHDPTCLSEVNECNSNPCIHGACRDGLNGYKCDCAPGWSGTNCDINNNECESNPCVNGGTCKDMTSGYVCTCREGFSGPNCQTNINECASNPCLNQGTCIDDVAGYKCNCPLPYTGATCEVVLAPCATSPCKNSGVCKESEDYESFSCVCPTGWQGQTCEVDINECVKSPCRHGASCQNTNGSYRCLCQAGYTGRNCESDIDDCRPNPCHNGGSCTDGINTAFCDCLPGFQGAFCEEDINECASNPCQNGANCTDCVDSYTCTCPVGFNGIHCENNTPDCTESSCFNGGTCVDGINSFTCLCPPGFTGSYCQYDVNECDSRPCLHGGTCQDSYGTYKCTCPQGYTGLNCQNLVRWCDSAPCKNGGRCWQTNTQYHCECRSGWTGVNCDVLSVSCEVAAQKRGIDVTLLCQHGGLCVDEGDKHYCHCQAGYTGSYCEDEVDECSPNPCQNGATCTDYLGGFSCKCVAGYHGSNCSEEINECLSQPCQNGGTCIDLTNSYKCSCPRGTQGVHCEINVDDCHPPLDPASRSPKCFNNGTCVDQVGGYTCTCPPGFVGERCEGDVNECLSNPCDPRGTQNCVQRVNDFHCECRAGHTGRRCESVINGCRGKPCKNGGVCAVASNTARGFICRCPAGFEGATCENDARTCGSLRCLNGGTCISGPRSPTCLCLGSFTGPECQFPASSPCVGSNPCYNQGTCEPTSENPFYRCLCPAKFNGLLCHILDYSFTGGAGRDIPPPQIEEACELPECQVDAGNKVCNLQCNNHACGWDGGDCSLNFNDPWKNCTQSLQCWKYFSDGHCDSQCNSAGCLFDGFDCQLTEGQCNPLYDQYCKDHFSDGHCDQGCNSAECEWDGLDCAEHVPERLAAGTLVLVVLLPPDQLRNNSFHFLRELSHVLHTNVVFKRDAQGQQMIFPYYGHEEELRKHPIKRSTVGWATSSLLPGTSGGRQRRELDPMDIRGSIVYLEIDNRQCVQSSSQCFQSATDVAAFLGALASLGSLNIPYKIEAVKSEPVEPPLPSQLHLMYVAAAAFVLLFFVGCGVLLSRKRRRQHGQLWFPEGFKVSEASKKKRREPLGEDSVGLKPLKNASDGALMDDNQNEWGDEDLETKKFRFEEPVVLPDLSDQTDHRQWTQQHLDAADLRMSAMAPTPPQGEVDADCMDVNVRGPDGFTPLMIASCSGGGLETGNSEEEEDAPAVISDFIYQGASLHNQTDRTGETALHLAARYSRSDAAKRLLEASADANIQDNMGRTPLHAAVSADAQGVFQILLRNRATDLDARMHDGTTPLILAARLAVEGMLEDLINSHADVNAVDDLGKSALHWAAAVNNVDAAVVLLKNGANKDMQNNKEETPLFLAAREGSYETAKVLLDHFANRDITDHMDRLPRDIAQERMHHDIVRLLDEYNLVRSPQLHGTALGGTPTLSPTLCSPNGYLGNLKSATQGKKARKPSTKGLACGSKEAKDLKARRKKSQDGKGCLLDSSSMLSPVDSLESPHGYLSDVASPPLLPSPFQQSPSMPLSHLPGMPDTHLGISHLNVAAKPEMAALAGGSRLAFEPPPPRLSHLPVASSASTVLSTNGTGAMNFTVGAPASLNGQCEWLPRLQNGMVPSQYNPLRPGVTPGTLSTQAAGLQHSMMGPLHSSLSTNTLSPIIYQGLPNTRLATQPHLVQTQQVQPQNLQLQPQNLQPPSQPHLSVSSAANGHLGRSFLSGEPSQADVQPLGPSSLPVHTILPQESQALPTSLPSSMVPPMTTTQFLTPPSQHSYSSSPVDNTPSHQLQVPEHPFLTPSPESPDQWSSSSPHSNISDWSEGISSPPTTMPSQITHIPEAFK

Row | IC50, mouse Notch1 reporter gene co-culture assay (DLL4-HEK293) [nM] | Binder
30 | 1.37 | B2
31 | 0.62 | B4
32 | 0.5 | B5

target: T3, full-length mouse Notch1 expressed on …; assay: cell-based ELISA, U-2 OS cells expressing full-length mouse Notch1
Method: (§4) Supernatants from clones displaying positive binding to immunogens in recombinant Notch1 NRR based ELISAs described above were then screened for cell surface Notch1 binding in a cell-based ELISA. U-2 OS cells stably overexpressing human or mouse full length Notch1 protein on cell surface were plated at 50,000 cells/well in 96 well plates (white opaque, BD/VWR) the day before ELISA assay. On the day of the ELISA, culture media were removed from wells and serially diluted (1:3 in blocking buffer) antibody solutions or hybridoma culture supernatants were applied to the plate. Plates were incubated at room temperature for 2 hours before being washed with PBS-Mg/Ca. HRP-conjugated secondary antibody was then applied and incubated with cells for 1 hour as described above for recombinant protein ELISA. Plates were washed with PBS-Mg/Ca before being developed with Pico-Chemiluminescent developing kit (Thermal Scientific), and chemiluminescence measurements were performed per manufacturer's instructions. Data plotting and analyses were performed with Microsoft Excel and Graphpad-Prizm software.

Row | EC50 [nM] | Binder
33 | 0.129 | B1
34 | 0.229 | B3
35 | 0.0934 | B4
36 | 0.146 | B5
37 | 0.144 | B6
38 | 0.137 | B7
39 | 0.172 | B9

target: T2, full-length human Notch1 expressed on …; assay: cell-based or functional assay; remark: another data set of the same source

Row | IC50, Notch1 signaling inhibition co-culture reporter assay [nM] | Maximal Inhibition (%), Notch1 signaling inhibition co-culture reporter assay [%] | Binder
40 | 0.21 | 95.3 | B10
41 | 0.11 | 95.3 | B11
42 | 0.16 | 95.3 | B12

target: T1, human Notch1 NRR_Avi_His recombinant …; assay: SPR (Biacore T100), antibody captured by anti-human IgG-Fc, NRR_Avi_His as analyte, 1:1 Langmuir model
Method: as §3

Row | Kd | koff [s⁻¹] | kon [M⁻¹ s⁻¹] | Binder
43 | 9.65 nM and 9.6 nM | 0.000422 | 43700 | B1
44 | 6.42 nM and 6.4 nM | 0.000389 | 60500 | B3
45 | 1.83 nM | 0.000442 | 242000 | B4
46 | 21.8 nM | 0.00103 | 47400 | B6
47 | 4.34 nM | 0.000229 | 52700 | B8

target: T2, full-length human Notch1 expressed on …; assay: cell-based ELISA, U-2 OS cells expressing full-length human Notch1
Method: as §4

Row | EC50 [nM] | Binder
48 | 0.177 | B1
49 | 0.305 | B3
50 | 0.152 | B4
51 | 0.219 | B5
52 | 0.296 | B6
53 | 0.178 | B7
54 | 0.213 | B9

target: Notch1 receptor with L1575P mutation (HPB-ALL cells) (UniProt P46531 19-2555, limits assumed); assay: cell-based or functional assay
Sequence (P46531 19-2555 L1593P limits assumed): as the sequence (P46531 19-2555) above, with L1575P counted along it

Row | Binder | IC50, MTS viability assay of HPB-ALL leukemia cells [nM]
55 | B10 | 2.17
56 | B12 | 2.49
